Source: article PMC10592106 (Molecular cell, 2023)
Ends that are not written are not given here.

Target: T1, FLAG-FBXL12-FL (full length) (human, UniProt Q9NXK8 1-326)
T1 sequence (looked up): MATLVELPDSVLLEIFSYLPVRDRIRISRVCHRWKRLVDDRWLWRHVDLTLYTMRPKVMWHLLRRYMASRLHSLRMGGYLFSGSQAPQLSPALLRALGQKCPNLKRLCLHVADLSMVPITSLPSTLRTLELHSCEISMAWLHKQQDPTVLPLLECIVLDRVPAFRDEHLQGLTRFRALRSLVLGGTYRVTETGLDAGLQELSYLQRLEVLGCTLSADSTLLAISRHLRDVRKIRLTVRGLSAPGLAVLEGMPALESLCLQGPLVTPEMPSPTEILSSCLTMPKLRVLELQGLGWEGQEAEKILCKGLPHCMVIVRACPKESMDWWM
Experiment: pull-down

## MVSKRRLSKSEDKE (also: phosphorylated by CHK1, residues not given here) [FANCD2 N-terminal peptide WT, phosphorylated by CHK1]
  binding result: binds
